pKd: −log10 of the molar value.
Key:
Assay in all cases: SPR; His-tagged rH fragment held on a Ni-charged NTA chip (BIAcore X or 3000; 500-1,000 RU, reloaded for each injection), C3 protein injected in HBS-P (10 mM HEPES pH 7.4, 150 mM NaCl, 0.005% P20) at 5 μL/min, 25°C; reference cell with nickel only; equilibrium levels fitted to a one-site equation
[1] = biological target: recombinant Factor H fragment rH 1-6 (human)
[2] = biological target: recombinant Factor H fragment rH 19-20 (human)
[3] = biological target: recombinant Factor H fragment rH 1-7 (human)
[4] = biological target: recombinant Factor H fragment rH 1-8 (human)
[5] = biological target: recombinant Factor H fragment rH 18-20 (human)
[6] = biological target: recombinant Factor H fragment rH 16-20 (human)
[7] = biological target: recombinant Factor H fragment rH 17-20 (human)
[8] = biological target: full-length recombinant Factor H (human) (UniProt P08603)
Chain of full-length recombinant Factor H (human) (P08603 19-1231): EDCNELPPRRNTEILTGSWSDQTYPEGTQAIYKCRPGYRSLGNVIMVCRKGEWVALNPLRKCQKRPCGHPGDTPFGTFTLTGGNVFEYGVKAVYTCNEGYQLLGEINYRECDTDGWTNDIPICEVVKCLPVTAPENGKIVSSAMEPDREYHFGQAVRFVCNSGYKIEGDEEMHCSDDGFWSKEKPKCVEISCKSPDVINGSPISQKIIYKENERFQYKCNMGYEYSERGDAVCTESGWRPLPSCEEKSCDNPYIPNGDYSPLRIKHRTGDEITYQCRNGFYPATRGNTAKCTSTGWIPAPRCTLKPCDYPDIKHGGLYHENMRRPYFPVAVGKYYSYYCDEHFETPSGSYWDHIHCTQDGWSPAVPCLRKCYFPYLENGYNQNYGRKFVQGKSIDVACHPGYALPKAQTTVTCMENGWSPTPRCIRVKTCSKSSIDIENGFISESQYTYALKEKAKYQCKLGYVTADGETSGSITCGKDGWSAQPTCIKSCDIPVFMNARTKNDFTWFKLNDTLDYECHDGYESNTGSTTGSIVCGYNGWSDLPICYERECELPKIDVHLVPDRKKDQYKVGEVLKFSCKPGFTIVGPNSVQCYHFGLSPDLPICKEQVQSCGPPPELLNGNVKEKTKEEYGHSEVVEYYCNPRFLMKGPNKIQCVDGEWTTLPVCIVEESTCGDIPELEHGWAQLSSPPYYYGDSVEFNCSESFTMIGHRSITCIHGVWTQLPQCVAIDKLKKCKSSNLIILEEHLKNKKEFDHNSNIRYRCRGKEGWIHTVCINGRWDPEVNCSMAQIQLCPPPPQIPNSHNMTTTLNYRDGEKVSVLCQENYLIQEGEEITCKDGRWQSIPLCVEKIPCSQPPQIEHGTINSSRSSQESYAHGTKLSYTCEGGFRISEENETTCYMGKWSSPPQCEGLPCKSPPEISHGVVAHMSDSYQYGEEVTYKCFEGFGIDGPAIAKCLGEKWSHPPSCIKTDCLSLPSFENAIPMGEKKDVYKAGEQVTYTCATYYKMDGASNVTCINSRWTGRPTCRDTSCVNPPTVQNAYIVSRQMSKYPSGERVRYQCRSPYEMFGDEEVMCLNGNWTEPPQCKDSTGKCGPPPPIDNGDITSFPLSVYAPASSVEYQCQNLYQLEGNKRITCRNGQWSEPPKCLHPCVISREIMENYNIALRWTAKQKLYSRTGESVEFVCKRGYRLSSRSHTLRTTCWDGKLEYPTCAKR

Chain of C3d (P01024 1002-1303): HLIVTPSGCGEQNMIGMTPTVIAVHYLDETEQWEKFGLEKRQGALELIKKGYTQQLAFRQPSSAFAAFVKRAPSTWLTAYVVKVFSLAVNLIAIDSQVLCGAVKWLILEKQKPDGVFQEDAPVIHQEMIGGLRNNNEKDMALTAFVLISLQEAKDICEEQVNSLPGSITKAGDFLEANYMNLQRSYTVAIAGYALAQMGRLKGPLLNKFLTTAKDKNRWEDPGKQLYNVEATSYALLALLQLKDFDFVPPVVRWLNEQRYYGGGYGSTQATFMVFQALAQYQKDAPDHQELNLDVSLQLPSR

| pKd [1] | pKd [2] | pKd [3] | pKd [4] | pKd [5] | pKd [6] | pKd [7] | pKd [8] | Substance |
| --- | --- | --- | --- | --- | --- | --- | --- | --- |
| 6.40 |  |  |  |  |  |  |  | complement component C3 (native C3) (natural protein) |
| 5.30 | 5.55 |  |  |  |  |  |  | iC3b (domain or fragment) |
|  | 5.72 |  |  |  |  |  |  | C3d (from UniProt P01024 1002-1303) (domain or fragment) |
| 7.10 | 5.77 | 7.10 | 6.82 | 5.72 | 5.62 | 5.68 | 7.02 | C3b (domain or fragment) |
